Source: patent US20210087294A1 (University of Pennsylvania, published 2021)

Tests used:
[1] = target: T1, murine fibroblast activation protein (FAP) (murine, UniProt P97321 1-761); assay: flow cytometry on BALB/c 3T3 cells expressing a murine FAP transgene
T1 construct: whole, on cells; also called mouse FAP; murine FAP
T1 sequence (looked up): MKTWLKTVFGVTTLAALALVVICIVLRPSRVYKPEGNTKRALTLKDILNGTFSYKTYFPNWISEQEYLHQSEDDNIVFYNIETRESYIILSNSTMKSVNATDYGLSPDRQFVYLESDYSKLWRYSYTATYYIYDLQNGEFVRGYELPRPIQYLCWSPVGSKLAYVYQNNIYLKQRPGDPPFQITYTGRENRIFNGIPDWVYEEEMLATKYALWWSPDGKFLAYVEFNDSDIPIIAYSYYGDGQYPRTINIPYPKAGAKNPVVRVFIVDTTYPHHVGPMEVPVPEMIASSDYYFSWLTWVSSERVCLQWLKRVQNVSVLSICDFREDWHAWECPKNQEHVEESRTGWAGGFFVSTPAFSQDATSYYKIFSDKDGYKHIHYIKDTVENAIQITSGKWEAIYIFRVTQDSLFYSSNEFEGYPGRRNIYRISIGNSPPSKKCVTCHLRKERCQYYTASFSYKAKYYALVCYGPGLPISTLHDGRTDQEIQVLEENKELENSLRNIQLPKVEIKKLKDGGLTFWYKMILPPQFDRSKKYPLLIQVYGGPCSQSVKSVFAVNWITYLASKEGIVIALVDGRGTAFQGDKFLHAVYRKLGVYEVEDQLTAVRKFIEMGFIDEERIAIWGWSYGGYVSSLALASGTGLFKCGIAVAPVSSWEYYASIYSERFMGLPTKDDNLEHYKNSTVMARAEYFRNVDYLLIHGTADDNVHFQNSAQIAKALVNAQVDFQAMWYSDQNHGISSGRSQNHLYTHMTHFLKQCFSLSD
Description: (§1) On day 241, 2017 spleens were harvested, a single cell suspension prepared, and splenocytes fused with sp2/0 cells by the UPENN Hybridoma Core Facility. Hyridomas supernatants were initially screened by FACS on MC KOSA parental (FAP null) vs. canine FAP-transgene expressing MC KOSA.K9FAP using hybridoma supernatants as the primary antibodies and AF488 goat anti-mouseIgG as a secondary. Clone 4G5 identified as reactive to transduced cells but not parental cells and screened on additional cells to confirm reactivity with FAP expressing but not FAP-negative cells: Human primary fibroblasts, BALB/c 3T3 expressing murine or human FAP transgenes, canine primary fibroblasts, SK KOSA (FAP expressing), and BALB/c 3T3 (FAP negative) cells. 4G5 was then determined to be an IgG1k isotype antibody using (Thermo Fisher Rapid ELISA Mouse mAb Isotyping Kit #37503)
(§2) BALB/c 3T3 fibroblast cells transduced to express full-length canine FAP were then used to immunize 14 week old BALB/c FAP^{-/-} mice. All injections were given intraperitoneally and consisted of 1×10⁷ cells in 0.5 ml sterile PBS. The initial immunization was followed by six booster immunizations at regular intervals over the next eight months. At the conclusion of the study, spleens were harvested, and the resulting single-cell suspensions were used to generate hybridomas via fusion with sp2/0 cells. […]

[2] = target: T2, human fibroblast activation protein (FAP) (human, UniProt Q12884 1-760); assay: flow cytometry on human primary fibroblasts and on BALB/c 3T3 cells expressing a human FAP transgene
T2 construct: whole, on cells; also called human FAP; huFAP
T2 sequence (looked up): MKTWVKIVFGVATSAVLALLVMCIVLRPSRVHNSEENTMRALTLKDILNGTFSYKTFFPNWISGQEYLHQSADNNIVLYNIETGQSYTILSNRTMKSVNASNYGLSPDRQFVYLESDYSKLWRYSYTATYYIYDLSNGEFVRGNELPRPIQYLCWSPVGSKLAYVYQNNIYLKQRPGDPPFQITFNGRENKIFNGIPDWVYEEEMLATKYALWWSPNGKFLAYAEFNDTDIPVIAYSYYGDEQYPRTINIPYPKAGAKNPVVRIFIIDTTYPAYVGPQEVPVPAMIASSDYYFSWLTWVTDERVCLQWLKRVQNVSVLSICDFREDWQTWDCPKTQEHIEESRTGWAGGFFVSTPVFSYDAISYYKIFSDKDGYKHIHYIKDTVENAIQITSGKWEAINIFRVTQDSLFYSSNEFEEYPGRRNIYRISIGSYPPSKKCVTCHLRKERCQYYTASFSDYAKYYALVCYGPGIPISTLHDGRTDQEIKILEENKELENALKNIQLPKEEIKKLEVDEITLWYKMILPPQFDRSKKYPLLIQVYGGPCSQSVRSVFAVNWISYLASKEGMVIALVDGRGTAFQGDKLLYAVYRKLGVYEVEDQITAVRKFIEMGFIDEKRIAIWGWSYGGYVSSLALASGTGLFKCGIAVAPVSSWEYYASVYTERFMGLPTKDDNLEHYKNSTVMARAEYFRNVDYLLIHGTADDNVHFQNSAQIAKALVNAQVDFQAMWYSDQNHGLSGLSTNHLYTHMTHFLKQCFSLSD
Description: as §1, §2

binding result [1]: binds
binding result [2]: binds
B1: 4G5 anti-canine FAP antibody (antibody, V domains shown)
VH: QVQLQQPGAELVKPGASVKLSCKASGYTITSYSLHWVKQRPGQGLEWIGEINPANGDHNFSEKFEIKATLTVDSSSNTAFMQLSRLTSEDSAVYYCTRLDDSRFHWYFDVWGAGTTVTVSS
VL: QIVLTQSPALMSASPGEKVTMTCTASSSVSYMYWYQQKPRSSPKPWIFLTSNLASGVPARFSGRGSGTSFSLTISSMEAEDAATYYCQQWSGYPPITFGSGTKLEIK
notes: Mouse hybridoma monoclonal antibody, tested as hybridoma supernatant or immunoglobulin; also called clone 4G5; 4G5 immunoglobulin
